Laboratory results as given in the supplement of paper PMC10567573.

B1: CDS2 (parent)
chain: IHSIALSTFASLIGPFGGFFASGF

Variants of: B1
Assay: protein stability index of a GFP-peptide fusion (GPS, HEK-293T) (PSI 1-6); higher = more stable
Settings: c terminus: a fixed tail appended
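Note: lentivirally expressed fusions sorted by FACS into six bins by GFP to DsRed ratio, PSI derived from sequencing read proportions per bin multiplied by bin number.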

Protein stability index of substitutions, site by site:
G14: I 2.82; Y 2.64; K 3.34; T 2.79; R 2.97; E 2.76; N 1.69; Q 2.15; C 2.05
S11: W 5.33; N 2.33; H 2.75; A 2.88; Q 3.26; E 3.35; I 3.73; T 2.57; R 2.81; C 2.7; F 3.22; K 3.22; G 2.9; D 2.9; V 1.89; L 2.8; Y 4.15; M 3.71
A5: D 2.51; F 3.17; P 2.54; G 2.93; R 3.68; I 3.04; L 2.15; Q 3.47; E 3.98; M 2.14; H 2.81; T 2.36; V 1.84; W 2.77; Y 2.88; C 3.88; K 3.47; N 4.35; S 3.12
I13: T 2.77; P 2.92; L 2.64; N 2; G 2.48; S 2.8; H 3.22; Y 2.89; W 3.97; F 3.52; E 2.6; K 2.49; A 2.25; Q 2.45
H2: E 1.8; W 2; S 2.03; G 3.52; C 4.54; A 2.61; P 1.95; T 3.98; Q 2.43; I 2.41; M 2.79; D 2.57; K 3.27; Y 3.65
L12: F 4.01; G 3.36; I 2.76; Y 2.37; H 3.22; A 2.82; N 2.95; C 2.74; D 3.44; K 3.15; S 3.23; P 2.99; R 1.6; W 3.43; T 1.49; E 2.51; Q 4.09
P15: G 3.77; Q 3.43; S 2.34; F 2.46; D 3.92; N 2.82; H 2.17; I 4.59; Y 1.75; W 2.2; T 3.98; C 2.62; A 2.41; K 1.77; L 4.3; R 1.88; M 3.79; E 3.88
S3: I 3.44; G 2.49; Y 2.06; T 2.8; V 3.02; P 2.89; N 4.17; D 3.74; L 4.15; E 3.44; F 3.44; Q 2.4; K 3.55; C 4.47
F16: A 3.6; D 3.08; T 2.92; I 4.33; G 4.52; L 1.91; K 3.11; V 2.96; M 3.82; Q 3.71; H 2.84; Y 2.37; W 2.49; P 2.02; R 2.29
S7: V 3; P 2.88; F 3.48; H 3.45; Y 2.65; G 3.09; N 2.5; I 2.94; R 3.4; C 1.83; W 3.82; Q 2.64; A 2.22; M 3.09; T 2.71
F9: R 3.28; H 1.51; W 2.81; C 2.62; Y 1.62; N 2.11; I 3.79; E 1.92; S 3.33; P 2.63; Q 3.22; L 3.88; D 2.15; G 2.44
